Assay results from paper PMC4244197 (Molecular Biology of the Cell, 2014).

Target: T1, GST-17NAnk (GST-tagged N-terminal cytosolic domain of zDHHC17, amino acids 11-305) (mouse, UniProt Q80TN5-1 11-305)
T1 sequence (looked up): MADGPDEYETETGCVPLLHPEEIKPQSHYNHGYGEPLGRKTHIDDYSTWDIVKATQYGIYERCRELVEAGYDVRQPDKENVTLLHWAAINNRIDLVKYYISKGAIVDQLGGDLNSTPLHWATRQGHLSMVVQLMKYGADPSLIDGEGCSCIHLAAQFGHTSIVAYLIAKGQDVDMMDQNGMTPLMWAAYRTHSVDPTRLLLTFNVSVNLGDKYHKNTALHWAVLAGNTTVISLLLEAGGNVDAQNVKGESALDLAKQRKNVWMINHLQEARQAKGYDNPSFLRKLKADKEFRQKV
Assay: pull-down

B1: Myc-tagged CSP, palmitoylated (p) (natural protein, UniProt Q29455 1-198, looked up)
chain: MADQRQRSLSTSGESLYHVLGLDKNATSDDIKKSYRKLALKYHPDKNPDNPEAADKFKEINNAHAILTDATKRNIYDKYGSLGLYVAEQFGEENVNTYFVLSSWWAKALFIFCGLLTCCYCCCCLCCCFNCCCGKCKPKAPEGEETEFYVSPEDLEAQLQSDEREAADTPIVIQPASATETTQLTADSHPSYHTDGFN
modifications: palmitoylated (S-acylated) cysteines, positions not given
B1 was tested, and the “fold lower binding than nonpalmitoylated Myc-CSP” value was 6 fold.
